Publication PMC9829383

Molecular target: Ecad ectodomain K14E mutant
Assay: single-molecule AFM dynamic force spectroscopy

Q: For “Ecad ectodomain K14E mutant (domain or fragment)”, which koff is on record?
A: 0.78 s⁻¹
